Assay [1] has as its target full-length human IL-36R on cells (human) (UniProt Q9HB29).
Assay [2] has the same target. This is another data set of the same source.
The target of assay [3] is Macaca fascicularis IL-36R on cells (Macaca fascicularis). The assay is described as follows: cell-based or functional assay.
Assay [4] has as its target full-length human IL-36R on cells (human) (UniProt Q9HB29). As to the kind of experiment: cell-based or functional assay.

Like-named read-outs stand apart in the source and are kept apart here.

Sequence of Macaca fascicularis IL-36R on cells (Macaca fascicularis) (chain, as listed by the source): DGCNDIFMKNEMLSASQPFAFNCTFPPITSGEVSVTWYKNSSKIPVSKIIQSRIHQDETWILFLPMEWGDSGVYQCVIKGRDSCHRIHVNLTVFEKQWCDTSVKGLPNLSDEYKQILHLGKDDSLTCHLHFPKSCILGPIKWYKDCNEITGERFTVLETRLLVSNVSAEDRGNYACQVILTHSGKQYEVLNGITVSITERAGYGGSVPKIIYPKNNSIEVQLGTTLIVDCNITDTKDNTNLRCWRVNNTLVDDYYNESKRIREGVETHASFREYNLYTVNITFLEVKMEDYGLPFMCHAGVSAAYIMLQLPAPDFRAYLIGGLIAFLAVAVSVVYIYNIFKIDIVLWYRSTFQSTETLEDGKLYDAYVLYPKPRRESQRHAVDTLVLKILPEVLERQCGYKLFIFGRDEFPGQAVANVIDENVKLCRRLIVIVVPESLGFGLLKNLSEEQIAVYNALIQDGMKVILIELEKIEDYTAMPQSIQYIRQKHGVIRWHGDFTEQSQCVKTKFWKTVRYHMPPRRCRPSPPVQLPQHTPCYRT

B1: human IL-36β (ligand, UniProt Q9NZH7 5-157, looked up)
chain: REAAPKSYAIRDSRQMVWVLSGNSLIAAPLSRSIKPVTLHLIACRDTEFSDKEKGNMVYLGIKGKDLCLFCAEIQGKPTLQLKLQGSQDNIGKDTCWKLVGIHTCINLDVRESCFMGTLDQWGIGVGRKKWKSSFQHHHLRKKDKDFSSMRTN
For the molecule B1, in assay [1], the EC50 (read off the curve) of hIL36β, NFκB-luciferase RLU, in the presence of 0.1 nM REGN6489 came out at 0.005 nM; the EC50 (read off the curve) of hIL36β, NFκB-luciferase RLU, in the presence of 0.3 nM REGN6489 was determined as 0.01 nM; the EC50 (read off the curve) of hIL36β, NFκB-luciferase RLU, in the presence of 1 nM REGN6489 came out at 0.03 nM; the EC50 (read off the curve) of hIL36β, NFκB-luciferase RLU, in the presence of 3 nM REGN6489 worked out at 0.1 nM. In assay [1], the EC50 (read off the curve) of hIL36β, NFκB-luciferase RLU, in the presence of 9 nM REGN6489 was determined as 0.3 nM and the EC50 (read off the curve) of hIL36β, NFκB-luciferase RLU, no antibody stood at 0.002 nM. For the same molecule, in assay [2], the EC50 (read off the curve) of hIL36β, NFκB-luciferase RLU, in the presence of 0.3 nM REGN6490 was 0.008 nM; the EC50 (read off the curve) of hIL36β, NFκB-luciferase RLU, in the presence of 1 nM REGN6490 was 0.02 nM; the EC50 (read off the curve) of hIL36β, NFκB-luciferase RLU, in the presence of 3 nM REGN6490 turned out to be 0.08 nM; the EC50 (read off the curve) of hIL36β, NFκB-luciferase RLU, in the presence of 9 nM REGN6490 came out at 0.3 nM. In assay [2], the EC50 (read off the curve) of hIL36β, NFκB-luciferase RLU, no antibody was 0.003 nM. For the same molecule, the EC50, NFκB-luciferase, HEK293/NFκB-luc/MfIL-36R cells in assay [3] turned out to be 0.27 nM. In assay [4], this molecule gave an EC50, NFκB-luciferase, HEK293/NFκB-luc/hIL-36R cells of 0.014 nM.

The record behind these values is US20200017592A1.
